Columns and labels:
human VEGFA-121-His = biological target: T1, human VEGFA-121-His (human, UniProt P15692-9 27-147); assay: SPR (Biacore T200), VEGFA-121-His amine-coupled on C1 chip, antibody in solution, 25 C, 1:1 Langmuir
T1 construct: also called VEFGA-121-His; not shown: His tag
T1 sequence (looked up): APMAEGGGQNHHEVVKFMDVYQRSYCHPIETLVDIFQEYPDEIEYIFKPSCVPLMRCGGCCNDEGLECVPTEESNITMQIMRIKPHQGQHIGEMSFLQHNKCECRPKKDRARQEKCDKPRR
Procedure: (§1) Binding of indicated antibodies to human VEGFA-121 was investigated by surface plasmon resonance using a BIACORE® T200 instrument (GE Healthcare). Aim for 50 RU of VEFGA-121-His were coupled on a Series S C1 chip (GE Healthcare BR-1005-35) at pH 5.0 by using an amine coupling kit supplied by the GE Healthcare. HBS-N(10 mM HEPES, 150 mM NaCl pH 7.4, GE Healthcare) was used as running buffer during the immobilization procedure. For the following kinetic characterization, sample and running buffer was PBS-T (10 mM phosphate buffered saline including 0.05% Tween20) at pH 7.4. The flow cell was set to 25° C.—and the sample block set to 12° C.—and primed with running buffer twice prior to kinetic characterization.
The association was measured by injection the indicated antibody in various concentrations in solution for 180 sec at a flow of 30 μl/min starting with 100 nM in 1:3 serial dilutions. The dissociation phase was monitored for up to 300 sec and triggered by switching from the sample solution to running buffer. The surface was regenerated by 30 sec washing with a 0.85% H₃PO₄ (phosphoric acid) solution at a flow rate of 30 μl/min Bulk refractive index differences were corrected by subtracting the response obtained from a anti His antibody surface. Blank injections are also subtracted (=double referencing). For calculation of KD and other kinetic parameters the Langmuir 1:1 model was used.

human Ang-2-RBD-Fc = biological target: T2, human Ang-2-RBD-Fc (human, UniProt O15123 275-496, limits assumed); assay: SPR (Biacore T200), antibody captured by anti-human F(ab')2, Ang2-RBD-Fc in solution, 25 C, apparent KD, 1:1 Langmuir
T2 construct: domain: RBD; not shown: Fc part
T2 sequence (looked up): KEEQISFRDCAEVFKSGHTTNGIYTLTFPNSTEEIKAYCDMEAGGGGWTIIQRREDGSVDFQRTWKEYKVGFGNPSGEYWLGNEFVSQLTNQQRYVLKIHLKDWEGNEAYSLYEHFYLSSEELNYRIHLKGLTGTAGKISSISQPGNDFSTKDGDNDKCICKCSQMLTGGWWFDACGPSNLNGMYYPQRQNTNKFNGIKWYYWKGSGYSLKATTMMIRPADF
Procedure: as §1, with “Ang-2-RBD-Fc” for “VEGFA-121”, “Around 8000 (RU)” for “Aim for 50 RU”, “goat anti human F(ab′)₂ (10 μg/ml anti human F(ab)′₂; Order Code: 28958325; GE Healthcare Bio-Sciences AB, Sweden)” for “VEFGA-121-His”, “CM5” for “C1”, “BR-1005-30)” for “BR-1005-35)”
The bispecific antibody was captured by injecting a 5 nM solution for 25 sec at a flow of 5 μl/min. The association was measured by injection of human Ang2-RBD-Fc in various concentrations in solution for 120 sec at a flow of 30 μl/min starting with 100 nM in 1:3 serial dilutions. The dissociation phase was monitored for up to 180 sec and triggered by switching from the sample solution to running buffer. The surface was regenerated by 60 sec washing with a Glycine pH 2.1 solution at a flow rate of 30 μl/min Bulk refractive index differences were corrected by subtracting the response obtained from a goat anti human F(ab′)₂ surface. Blank injections are also subtracted (=double referencing). For calculation of apparent KD and other kinetic parameters the Langmuir 1:1 model was used.

B1: xFab-Fab<ANG2-VEGF>-uncharged (Ang2VEGF-0452) (bispecific antibody)
light 1: QPGLTQPPSVSVAPGQTARITCGGNNIGSKSVHWYQQKPGQAPVLVVYDDSDRPSGIPERFSGSNSGNTATLTISRVEAGDEADYYCQVWDSSSDHYVFGTGTKVTVLRTVAAPSVFIFPPSDEQLKSGTASVVCLLNNFYPREAKVQWKVDNALQSGNSQESVTEQDSKDSTYSLSSTLTLSKADYEKHKVYACEVTHQGLSSPVTKSFNRGEC
heavy: not shown
light 2: EVQLVESGGGLVQPGGSLRLSCAASGYTFTNYGMNWVRQAPGKGLEWVGWINTYTGEPTYAADFKRRFTFSLDTSKSTAYLQMNSLRAEDTAVYYCAKYPHYYGSSHWYFDVWGQGTLVTVSSASVAAPSVFIFPPSDEQLKSGTASVVCLLNNFYPREAKVQWKVDNALQSGNSQESVTEQDSKDSTYSLSSTLTLSKADYEKHKVYACEVTHQGLSSPVTKSFNRGEC
notes: Bivalent, Fc-free CrossFab(VH-VL)-Fab format
Kd (human VEGFA-121-His): 0.35 nM
Kd (human Ang-2-RBD-Fc): 3 nM

B2: xFab-Fab<ANG2-VEGF>-charged (Ang2VEGF-0447) (bispecific antibody)
light 1: QPGLTQPPSVSVAPGQTARITCGGNNIGSKSVHWYQQKPGQAPVLVVYDDSDRPSGIPERFSGSNSGNTATLTISRVEAGDEADYYCQVWDSSSDHYVFGTGTKVTVLRTVAAPSVFIFPPSDKRLKSGTASVVCLLNNFYPREAKVQWKVDNALQSGNSQESVTEQDSKDSTYSLSSTLTLSKADYEKHKVYACEVTHQGLSSPVTKSFNRGEC
heavy: not shown
light 2: EVQLVESGGGLVQPGGSLRLSCAASGYTFTNYGMNWVRQAPGKGLEWVGWINTYTGEPTYAADFKRRFTFSLDTSKSTAYLQMNSLRAEDTAVYYCAKYPHYYGSSHWYFDVWGQGTLVTVSSASVAAPSVFIFPPSDEQLKSGTASVVCLLNNFYPREAKVQWKVDNALQSGNSQESVTEQDSKDSTYSLSSTLTLSKADYEKHKVYACEVTHQGLSSPVTKSFNRGEC
notes: as for B1
Kd (human VEGFA-121-His): 0.36 nM
Kd (human Ang-2-RBD-Fc): 3 nM

B3: xFab2-Fab<ANG2-VEGF>-uncharged (Ang2VEGF-0453) (bispecific antibody)
light 1: QPGLTQPPSVSVAPGQTARITCGGNNIGSKSVHWYQQKPGQAPVLVVYDDSDRPSGIPERFSGSNSGNTATLTISRVEAGDEADYYCQVWDSSSDHYVFGTGTKVTVLRTVAAPSVFIFPPSDEQLKSGTASVVCLLNNFYPREAKVQWKVDNALQSGNSQESVTEQDSKDSTYSLSSTLTLSKADYEKHKVYACEVTHQGLSSPVTKSFNRGEC
heavy: not shown
light 2: EVQLVESGGGLVQPGGSLRLSCAASGYTFTNYGMNWVRQAPGKGLEWVGWINTYTGEPTYAADFKRRFTFSLDTSKSTAYLQMNSLRAEDTAVYYCAKYPHYYGSSHWYFDVWGQGTLVTVSSASVAAPSVFIFPPSDEQLKSGTASVVCLLNNFYPREAKVQWKVDNALQSGNSQESVTEQDSKDSTYSLSSTLTLSKADYEKHKVYACEVTHQGLSSPVTKSFNRGEC
notes: Trivalent, Fc-free (CrossFab VH-VL)2-Fab format
Kd (human VEGFA-121-His): 0.22 nM
Kd (human Ang-2-RBD-Fc): 5 nM

B4: xFab2-Fab<ANG2-VEGF>-charged (Ang2VEGF-0448) (bispecific antibody)
light 1: QPGLTQPPSVSVAPGQTARITCGGNNIGSKSVHWYQQKPGQAPVLVVYDDSDRPSGIPERFSGSNSGNTATLTISRVEAGDEADYYCQVWDSSSDHYVFGTGTKVTVLRTVAAPSVFIFPPSDKRLKSGTASVVCLLNNFYPREAKVQWKVDNALQSGNSQESVTEQDSKDSTYSLSSTLTLSKADYEKHKVYACEVTHQGLSSPVTKSFNRGEC
heavy: not shown
light 2: EVQLVESGGGLVQPGGSLRLSCAASGYTFTNYGMNWVRQAPGKGLEWVGWINTYTGEPTYAADFKRRFTFSLDTSKSTAYLQMNSLRAEDTAVYYCAKYPHYYGSSHWYFDVWGQGTLVTVSSASVAAPSVFIFPPSDEQLKSGTASVVCLLNNFYPREAKVQWKVDNALQSGNSQESVTEQDSKDSTYSLSSTLTLSKADYEKHKVYACEVTHQGLSSPVTKSFNRGEC
notes: as for B3
Kd (human VEGFA-121-His): 0.18 nM
Kd (human Ang-2-RBD-Fc): 4 nM
